Test results taken from the nanobody polyreactivity screen of Harvey et al. (2022).

Experiment: yeast display, Sf9 membrane polyspecificity reagent, FACS + sequencing; frameworks hold sequencing errors
Procedure, shortened: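 In a synthetic yeast display library (Saccharomyces cerevisiae BJ5465), nanobody expression was induced with galactose for 36–48 hours. FACS gates were set low and high (top ~1%) using anti-HA fluorescence for expression and streptavidin fluorescence for binding of the Sf9 membrane reagent. Each polyreactivity label is drawn from the gate of origin.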

Which “polyreactivity (PSR sort gate)” value does the source give for “QVQLVESGGGLVQAGGSLRLSCAASGSNFTYYAMGWYRQAPGKERELVAAISYSGGTTYYADSVKGRFTISRDNAKNTVYLQMNSLKPEDTAVYYCNVDADYESQWLSVGYDYWGQGTQVTVSS” here?
The value was “low polyreactivity”.

For “QVQLVESGGGLVQAGGSLRLSCAASGSNFVGYAMGWYRQAPGKERELVAAISWSGDSTYYADSVKGRFTISRDNAKITVYLQMNSLKPEDTAVYYCAVDYAEIGPRREVEYDYWGHGTQVTVSS”, which “polyreactivity (PSR sort gate)” value is on record?
The value was “low polyreactivity”.

With “QVQLVESGGGLVQAGGSLRLSCAASGSNFVTYAMGWSRQAPGKERELVAAISSSGTSTYYADSVKGRFTISRDNAKNTVYLQMNSLKPEDTAVYYCAAYLRGYDYGYWGQGTQVTVSS” as the sequence, how does the “polyreactivity (PSR sort gate)” value read?
The value was “high polyreactivity”.

Which “polyreactivity (PSR sort gate)” value does the source give for “QVQLVESGGGLVQAGGSLRLSCAASGSNFVTYAMGWYRQAPGKERELVAAISYSGGSTYADSVKGRFTISRDNAKNTVYLQMNILKPEDTAVYYCNTDTSVDVRFDYWGQGTQVTVSS” here?
Its value is “low polyreactivity”.

For “QVQLVESGGGLVQAGGSLRLSCAASGSNFVVYAMGWYRQAPGKERELVAAITGSGGRTYYADSVKGRFTISRDNAKNTVYLQMNSLKPEDTAVYYCATDSRGGIFDYWGQGTQVTVSS”, which “polyreactivity (PSR sort gate)” value is on record?
Its value is “low polyreactivity”.

With “QVQLVESGGGLVQAGGSLRLSCAASGSNFYHYAMGWYRQAPGKERELVAAITRSGGSTYYADSVKGRFTISRDNAKNTVYLQLNSLKPEDTAVYYCAKDPDSYNFLTSNWYDYWGQGTQVTVSS” as the sequence, how does the “polyreactivity (PSR sort gate)” value read?
The value was “low polyreactivity”.

With “QVQLVESGGGLVQAGGSLRLSCAASGSNFYSYVMGWYRQAPGKERELVAAISRNGQSTYYADSVKGRFTISRDNAKNTVYLQMNSLKPEDTAVYYCAARSRDKYDYWGQGTQVTVSS” as the sequence, how does the “polyreactivity (PSR sort gate)” value read?
The value was “high polyreactivity”.

With “QVQLVESGGGLVQAGGSLRLSCAASGSNISDNEMGWYRPAPGKESELVAAINWGGTNTYYADSVKGRYTISRDNAKNTVYLQINRLKPEDTAVYYCNADIPRRPIRHYLYDYWGQGTQVTVSS” as the sequence, how does the “polyreactivity (PSR sort gate)” value read?
The value was “low polyreactivity”.

With “QVQLVESGGGLVQAGGSLRLSCAASGSNLGNNDMGWYRQAPGKERQLVAAISRSDVSTFYADSVKGRFTISRDNAKNTVYLQMNSLKPEDTAVSSCAARTGRGDRTRRYYYWGQGTQVTVSS” as the sequence, how does the “polyreactivity (PSR sort gate)” value read?
Its value is “high polyreactivity”.

Which “polyreactivity (PSR sort gate)” value does the source give for “QVQLVESGGGLVQAGGSLRLSCAASGSNVAVYVMGWYRQAPGKERELVAAISISAARTYYADSVKGRFTISRDNAKNTVYLQMNSLKPEDTAVYYGAARLVFRNDSWGQGTQVTVSS” here?
Its value is “high polyreactivity”.

Which “polyreactivity (PSR sort gate)” value does the source give for “QVQLVESGGGLVQAGGSLRLSCAASGSPFRHYALGWYRQAPGKERELVAVISWGGTSTYYADSGKGRFTISRDNAKNTVYLQMNSLKPEDSAVYYCNADSNWYYQWNYYGLYDYWGQGTQVTVSS” here?
Its value is “low polyreactivity”.

With “QVQLVESGGGLVQAGGSLRLSCAASGSRNAMGWYRQEPGKERQFVAAITWNGGSTYYADSVKGRFTITRDNAKNTVYLQMNSLKPEDTAVYYCAADVVFPFSVGYDYWGQGTQVTVSS” as the sequence, how does the “polyreactivity (PSR sort gate)” value read?
Its value is “low polyreactivity”.

Which “polyreactivity (PSR sort gate)” value does the source give for “QVQLVESGGGLVQAGGSLRLSCAASGSSFEGYVLGWYRQAPGKERELVATISFSGGSTYYADSVMGRFTISRDNAKNTVYLQMNSLKPVETAVYFSGASVRYKFYSVVSVRSEYWGQGTQVTVST” here?
Its value is “low polyreactivity”.

For “QVQLVESGGGLVQAGGSLRLSCAASGSSFGGYARGWYRQAPGKERELVAAISNGDRTNYADSVKGRFTISRDNAKNTVYLQLNSQKPEYTAVYDCATQPLTWSSYRWDWRAQFDHWGQGTQVTVSS”, which “polyreactivity (PSR sort gate)” value is on record?
Its value is “low polyreactivity”.

For “QVQLVESGGGLVQAGGSLRLSCAASGSSFIINAMGWYRKAPGKERELVAAITSGGSTSYADSVKGRFTISRDNAKYTVYLQMNSLNPEDTAVYYCATDHDIGYNFNRYDYWGLGTQVTVSS”, which “polyreactivity (PSR sort gate)” value is on record?
The value was “low polyreactivity”.

Which “polyreactivity (PSR sort gate)” value does the source give for “QVQLVESGGGLVQAGGSLRLSCAASGSSFISNAKGWYRQAPGKERELVAAINWTTGRTRYADSVQGRFTISRDNAKNSVYLQMNSLKAEDTAVYYCAKYSRKWYGAYYFWGQGTQVNVSS” here?
Its value is “high polyreactivity”.

For “QVQLVESGGGLVQAGGSLRLSCAASGSSFNRYAMGWYRQAPGKERELVAGISYRGGTYYADSVKGRFTISRDNAKNTVYLQMNSLKPEDTAVYYCNVVRRGTTSYDDYDYWGQGTQVTVSS”, which “polyreactivity (PSR sort gate)” value is on record?
The value was “high polyreactivity”.

With “QVQLVESGGGLVQAGGSLRLSCAASGSSFRFYAMGWYRQAPGKERELVATIRYSTGTTYYADSVKGRFTISRDNAKNTVYLQMNSLKPEDTAVYYCAAGYFIYSWRIRFDYWGQGTQVTVSS” as the sequence, how does the “polyreactivity (PSR sort gate)” value read?
Its value is “high polyreactivity”.

Which “polyreactivity (PSR sort gate)” value does the source give for “QVQLVESGGGLVQAGGSLRLSCAASGSSFRYTMGWYRQAHGKQRELVATITYSDGSTYYADSVKGRFTISRDNAKNTVYFQMNSLKPEDTAVYYCARTTPTGRQYRRYDYWGQGSQVTVSS” here?
Its value is “low polyreactivity”.

Which “polyreactivity (PSR sort gate)” value does the source give for “QVQLVESGGGLVQAGGSLRLSCAASGSSFSHYAMGWYRQAPGKVRELVAGISVRGGSTYYADSVKGRFTISRDNAKNTVDLQMNSLKPEDTAVYYCAIGYAKYYRTYYYWGQGTQVTVSS” here?
The value was “high polyreactivity”.

Which “polyreactivity (PSR sort gate)” value does the source give for “QVQLVESGGGLVQAGGSLRLSCAASGSSFSPYAMGWYRQAPGKERELVAAINSGSSTNYADSVKGRFTISRDNAKNTVYLQMNSLQPEDTAVYYCAADGQLPPRGILASWEFDYWGQGTQVTVSS” here?
Its value is “low polyreactivity”.
